T1: monkey C5-mmh (monkey, UniProt P01031 19-1676 (human entry), limits assumed)
T1 construct: recombinant, with C-terminal myc-myc-hexahistidine tag
T1 chain: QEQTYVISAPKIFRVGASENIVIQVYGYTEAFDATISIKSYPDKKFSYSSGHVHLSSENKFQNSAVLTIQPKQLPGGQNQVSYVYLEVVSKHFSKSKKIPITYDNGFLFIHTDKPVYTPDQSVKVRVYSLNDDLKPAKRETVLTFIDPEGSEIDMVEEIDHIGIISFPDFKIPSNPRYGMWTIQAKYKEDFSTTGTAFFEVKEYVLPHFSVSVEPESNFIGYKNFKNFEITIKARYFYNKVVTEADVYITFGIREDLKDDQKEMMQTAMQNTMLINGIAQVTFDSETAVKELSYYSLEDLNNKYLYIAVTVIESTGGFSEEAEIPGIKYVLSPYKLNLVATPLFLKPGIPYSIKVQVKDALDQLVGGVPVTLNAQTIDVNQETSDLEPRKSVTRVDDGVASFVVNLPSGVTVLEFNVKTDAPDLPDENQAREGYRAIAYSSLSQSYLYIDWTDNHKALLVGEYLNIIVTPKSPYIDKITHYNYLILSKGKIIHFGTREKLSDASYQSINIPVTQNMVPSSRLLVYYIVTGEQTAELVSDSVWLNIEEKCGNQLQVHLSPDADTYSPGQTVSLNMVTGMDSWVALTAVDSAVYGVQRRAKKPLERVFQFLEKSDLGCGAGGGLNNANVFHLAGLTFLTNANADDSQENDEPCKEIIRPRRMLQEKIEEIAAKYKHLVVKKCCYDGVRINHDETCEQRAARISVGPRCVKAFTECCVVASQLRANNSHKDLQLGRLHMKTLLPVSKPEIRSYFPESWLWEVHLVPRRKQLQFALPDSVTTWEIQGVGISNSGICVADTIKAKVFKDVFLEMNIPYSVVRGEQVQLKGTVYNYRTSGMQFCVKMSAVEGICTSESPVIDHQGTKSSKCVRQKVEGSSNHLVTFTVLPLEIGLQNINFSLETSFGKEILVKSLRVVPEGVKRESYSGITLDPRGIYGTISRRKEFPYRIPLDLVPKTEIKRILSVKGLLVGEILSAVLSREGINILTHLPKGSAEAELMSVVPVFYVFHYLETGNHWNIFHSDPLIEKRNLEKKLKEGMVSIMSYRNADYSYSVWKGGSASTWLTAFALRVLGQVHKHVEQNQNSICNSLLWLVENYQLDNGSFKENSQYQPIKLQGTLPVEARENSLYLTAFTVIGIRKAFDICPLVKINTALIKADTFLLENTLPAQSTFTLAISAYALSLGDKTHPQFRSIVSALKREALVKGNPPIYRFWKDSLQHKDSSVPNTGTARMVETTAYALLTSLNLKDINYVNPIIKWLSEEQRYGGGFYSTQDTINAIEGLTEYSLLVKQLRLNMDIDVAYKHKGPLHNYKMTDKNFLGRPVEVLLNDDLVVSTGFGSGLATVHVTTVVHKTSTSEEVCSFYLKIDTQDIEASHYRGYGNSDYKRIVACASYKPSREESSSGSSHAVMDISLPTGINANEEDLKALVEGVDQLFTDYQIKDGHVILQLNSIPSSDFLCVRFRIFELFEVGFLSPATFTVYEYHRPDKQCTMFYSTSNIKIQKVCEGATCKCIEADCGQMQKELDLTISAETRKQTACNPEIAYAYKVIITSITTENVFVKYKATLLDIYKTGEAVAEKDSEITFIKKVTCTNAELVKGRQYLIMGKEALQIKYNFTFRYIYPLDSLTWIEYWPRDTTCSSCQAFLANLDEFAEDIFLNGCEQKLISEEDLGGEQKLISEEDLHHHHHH

B1: H4H12167P (antibody, human IgG4, V domains shown)
VH: QVQLVESGGGLVKPGGSLRLSCAASGFTFSDSYMSWIRQAPGKGLEWISYIGSSGNTFYYADSVKGRFTISRDNANNLLYLQMTSLRAEDTAVYYCAREEGDFWSAVDSWGQGTLVTVSS
VL: DIQLTQSPSFLSASVGDRVTITCWASQGISSYLAWYQQKPGKAPKLLIHTASTLQSGVPSRFSGSGSGTEFTLTISNLQPEDFATYYCQQLNSYPFTFGPGTKVDIK
notes: H4H: human IgG4 Fc with S108P hinge mutation
B2: H4H12169P (antibody, human IgG4, V domains shown)
VH: EVQLVESGGGLAQPGGSLRLSCAASGFTFRSYAMSWVRQAPGKGPEWVSGIGGNGVTTYYADSVKGRFTISRDNSKNTLFLQMNSLRAEDTAVYYCVQGGLGGYFTGYWGQGTLVTVSS
VL: DIQMTQSPSSLSASVGDRVTITCRASQSISTYLNWYQQNPGKAPKLLIFDASSLQSGVPSRFSGSGSGTDFTLTIRGLQPEDFATYYCQQSYSAPLTFGGGTKVEIK
notes: as for B1
B3: H4H11686N (antibody, human IgG4, V domains shown)
VH: QVQLVESGGGLVKPGGSLRLSCAASGFTFSDYYMSWIRQAPGKGLEWVSYISSSGNTIKYADSMKGRFTISRDNAKKSLFVEMNSLRAEDTAVYYCARYKSSSDYFDHWGQGTLVTVSS
VL: EIVLTQSPATLSLSPGERATLSCRASQSVRSYLAWYQQKPGQAPRLLIYDASNRATAIPARFSGSGSGTDFTLTISSLEPEDLAVYYCQQSGNWPLTFGGGTKVEIK
notes: tested with H4H prefix (human IgG4 Fc with S108P hinge mutation); also called H2M11686N
B4: H4H12176P2 (antibody, human IgG4, V domains shown)
VH: EVQLVESGGGLVQPGGSLRLSCAASGFHSNRYWMDWVRQAPGKGLEWVANIKQDGSEENYVDSVKGRFTISRDNAKNSLYLQMNSLRAEDTAVYYCARDRSTSWVPYWFFDLWGRGTLVTVSS
VL: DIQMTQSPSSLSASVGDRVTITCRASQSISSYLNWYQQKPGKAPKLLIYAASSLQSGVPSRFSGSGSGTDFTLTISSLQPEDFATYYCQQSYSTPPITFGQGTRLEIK
notes: as for B1
B5: H4H12168P (antibody, human IgG4, V domains shown)
VH: QVQLVESGGGVVQPGGSLRLSCAASGFTFGGHAMHWVRQAPGKGLEWLAVISSDGSNKQYADSVKGRFTISRDNPKNTLYLQMNSLRVGDTAIYYCAKEVAPRYYYYGLDVWGQGTTVTVSS
VL: DIQMTQSPSSLSASVGDRVTITCRASQDISNFLAWYQQKPGKVPKLLIYTASTLQSGVPSRFSGSGSGTDFTLTVSSLQPEDVATYYCQKYAGALTFGPGTKVDIK
notes: as for B1

Biological target: T2, human C5 (human, UniProt P01031 19-1676)
Test: cell-based or functional assay

Binder	Human AP % Max Inhibition, hemolysis assay, NHS [%]	Human AP IC50, hemolysis assay, NHS [nM]	Human CP % Max Inhibition, hemolysis assay, NHS [%]	Human CP IC50, hemolysis assay, NHS [nM]
B1	64.8	15.5	99.9	3.68
B2	44.5	20	98.3	2.36
B3	76.2	13	97.4	3.09
B4	69.9	16.5	94.1	4.58
B5	66.2	28.5	97.5	3.33

Biological target: T2, human C5
Test: SPR (Biacore), mAb captured, dissociation of human C5 at pH7.4 vs pH6.0, 37°C
Protocol: Effect of pH on the rate of dissociation of recombinant human C5 bound to purified anti-C5 monoclonal antibodies was determined using a real-time surface plasmon resonance biosensor using a Biacore T200 instrument. The Biacore sensor surface was first derivatized by amine coupling with a monoclonal mouse anti-human Fc antibody (GE, # BR-1008-39) to capture anti-C5 monoclonal antibodies expressed with human IgG4 Fc. All Biacore binding studies were performed using two running buffers PBS-T, pH7.4 (0.01M Na₂HPO₄/NaH₂PO₄, 0.15M NaCl, 0.05% v/v Tween-20, adjusted to pH7.4) and PBS-T, pH6.0 (0.01M Na₂HPO₄/NaH₂PO₄, 0.15M NaCl, 0.05% v/v Tween-20, adjusted to pH6.0). […] Binding dissociative half-lives (t %) were calculated from kd as: […]

t½ Ratio pH7.4/pH6.0	Binder
0.2	B1
0.8	B3
≤ 0.4	B4
1	B5

Biological target: T3, African green monkey C5 (African green monkey)
Test: cell-based or functional assay

Binder	AGM AP % Max Inhibition, hemolysis assay, 5% serum [%]	AGM CP % Max Inhibition, hemolysis assay, 5% serum [%]	AGM Serum AP IC50, hemolysis assay, 5% serum [nM]	AGM Serum CP IC50, hemolysis assay, 5% serum [nM]
B1	53.4	90.5	69.5	69.5
B2	45.7	43.3	91.5	34.4
B3	50.4	49.3	163	48.2
B4	83.2	91	47.7	30.4
B5	88.2	90.8	22.5	28

Biological target: T3, African green monkey C5
Test: cell-based or functional assay
Remark: another data set of the same source

IC50, inhibition of CDC of Daudi cells, 1.66% African Green monkey serum [nM]	Binder
3.5	B1
2.9	B2
4.4	B3
3.5	B4
2	B5

Biological target: human C5 R885H-mmh (human, UniProt P01031 19-1676)
Test: cell-based or functional assay

IC50, inhibition of CDC of Daudi cells, C5 depleted human serum and 6.6 nM C5 Variant R885H [nM]	Binder
1.9	B1
1.3	B2
1.1	B3
2.1	B4
2.3	B5

Biological target: human C5 R885C-mmh (human, UniProt P01031 19-1676)
Test: cell-based or functional assay

IC50, inhibition of CDC of Daudi cells, C5 depleted human serum and 6.6 nM C5 Variant R885C [nM]	Binder
1	B1
0.67	B2
0.45	B3
1.3	B4
0.86	B5

Biological target: T2, human C5
Test: cell-based or functional assay
Remark: another data set of the same source

IC50, inhibition of CDC of Daudi cells, 1.66% human serum [nM]	Binder
2.5	B1
1.7	B2
1.5	B3
2.7	B4
1.5	B5

Biological target: T1, monkey C5-mmh
Test: SPR (Biacore), mAb captured, dissociation of monkey C5 at pH7.4 vs pH6.0, 37°C

t½ Ratio pH7.4/pH6.0	Binder
4.4	B1
2	B2
0.5	B3
2.8	B4
4	B5

Biological target: Cynomolgus monkey C5 (cynomolgus monkey, UniProt A0A2K5U1T1 19-1676)
Test: cell-based or functional assay

Binder	Cyno AP % Max Inhibition, hemolysis assay, 5% serum [%]	Cyno CP % Max Inhibition, hemolysis assay, 5% serum [%]	Cyno Serum AP IC50, hemolysis assay, 5% serum [nM]	Cyno Serum CP IC50, hemolysis assay, 5% serum [nM]
B1	98.3	100	7.6	21.3
B2	96.3	92.8	7.95	19.9
B3	98.7	94.5	9	14.1
B4	99.3	97.5	7.7	14.7
B5	99.7	99	5.45	10.3

Biological target: T1, monkey C5-mmh
Test: SPR (Biacore), mAb captured, dissociation of monkey C5 at pH7.4 vs pH6.0, 25°C

t½ Ratio pH7.4/pH6.0	Binder
9.2	B1
3.4	B2
0.37	B3
≤ 9.1	B4
3.8	B5
